Experiments:
biotin-FLF-CMK = target: T1, biotin-FLF-CMK
T1 chain: FLF

[1] = target: T2, DEVD-modified IL-36γ, full length
T2 sequence (Q9NZH8 whole entry, species assumed, looked up): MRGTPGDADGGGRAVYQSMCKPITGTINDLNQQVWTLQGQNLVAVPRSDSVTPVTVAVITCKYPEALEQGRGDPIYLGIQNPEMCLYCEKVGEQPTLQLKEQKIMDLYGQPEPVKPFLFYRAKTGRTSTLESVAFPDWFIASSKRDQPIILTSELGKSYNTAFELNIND

[2] = target: T3, DEVD-modified IL-36β, full length unprocessed
T3 sequence (Q9NZH7 whole entry, species assumed, looked up): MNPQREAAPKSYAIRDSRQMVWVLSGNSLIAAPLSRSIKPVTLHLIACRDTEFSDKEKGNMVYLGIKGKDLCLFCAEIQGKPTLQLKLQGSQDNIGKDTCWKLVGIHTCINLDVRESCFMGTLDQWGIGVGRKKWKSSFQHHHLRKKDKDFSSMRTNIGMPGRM

[3] = target: T4, Full-length poly-histidine-tagged human IL-36β
T4 chain: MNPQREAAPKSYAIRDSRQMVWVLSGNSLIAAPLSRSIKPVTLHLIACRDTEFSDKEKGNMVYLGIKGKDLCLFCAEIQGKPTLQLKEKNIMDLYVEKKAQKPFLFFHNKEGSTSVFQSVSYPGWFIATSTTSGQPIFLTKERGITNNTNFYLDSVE

endogenous IL-36γ = target: T5, endogenous IL-36γ
T5 chain: T2 sequence (Q9NZH8 whole entry, species assumed, looked up)

B1: Purified Neutrophil-derived Cathepsin G (protein)
chain: IIGGRESRPHSRPYMAYLQIQSPAGQSRCGGFLVREDFVLTAAHCWGSNINVTLGAHNIQRRENTQQHITARRAIRHPQYNQRTIQNDIMLLQLSRRVRRNRNVNPVALPRAQEGLRPGTLCTVAGWGRVSMRRGTDTLREVQLRVQRDRQCLRIFGSYDPRRQICVGDRRERKAAFKGDSGGPLLCNNVAHGIVSYGKSSGVPPEVFTRVSSFLPWIRTTMRS
Question: For B1, which “depletion of cathepsin G activity from degranulates with streptavidin agarose (FLF-sBzl hydrolysis; IL-36β bioassay)” value (biotin-FLF-CMK) is on record?
Answer: selective depletion of cathepsin G activity from PMA-treated neutrophil degranulates using biotin-FLF-CMK largely eliminated activation of IL-36b but not of IL-36g

B2: Recombinant poly-histidine-tagged caspase-3 (protein)
chain: SGISLDNSYKMDYPEMGLCIIINNKNFHKSTGMTSRSGTDVDAANLRETFRNLKYEVRNKNDLTREEIVELMRDVSKEDHSKRSSFVCVLLSHGEEGIIFGTNGPVDLKKITNFFRGDRCRSLTGKPKLFIIQACRGTELDCGIETDSGVDDDMACHKIPVEADFLYAYSTAPGYYSWRNSKDGSWFIQSLCAMLKQYADKLEFMHILTRVNRKVATEFESFSFDATFHAKKQIPCIVSMLTKELYFYH
Question: Which results are given for B2?
Answer: proteolytic processing, immunoblot [1]: DEVD-modified IL-36β (IL-36b^DEVD) and DEVD-modified IL-36γ (IL-36g^DEVD) was readily processed by caspase-3; proteolytic processing, immunoblot [2]: DEVD-modified IL-36β (IL-36b^DEVD) and DEVD-modified IL-36γ (IL-36g^DEVD) was readily processed by caspase-3

B3: purified cathepsin K (protein)
chain: APDSVDYRKKGYVTPVKNQGQCGSCWAFSSVGALEGQLKKKTGKLLNLSPQNLVDCVSENDGCGGGYMTNAFQYVQKNRGIDSEDAYPYVGQEESCMYNPTGKAAKCRGYREIPEGNEKALKRAVARVGPVSVAIDASLTSFQFYSKGVYYDESCNSDNLNHAVLAVGYGIQKGNKHWIIKNSWGENWGNKGYILMARNKNNACGIANLASFPKM
Question: How did the “cleavage and activation of IL-36β” value [3] turn out when B3 was run?
Answer: cathepsin K, a protease predominantly expressed in osteoclasts, can cleave and activate IL-36β (beta) at the same residue as Cathepsin G (NPQR5 EAAP)

B4: Purified Neutrophil-derived Elastase (protein)
chain: IVGGRRARPHAWPFMVSLQLRGGHFCGATLIAPNFVMSAAHCVANVNVRAVRVVLGAHNLSRREPTRQVFAVQRIFENGYDPVNLLNDIVILQLNGSATINANVQVAQLPAQGRRLGNGVQCLAMGWGLLGRNRGIASVLQELNVTVVTSLCRRSNVCTLVRGRQAGVCFGDSGSPLVCNGLIHGIASFVRGGCASGLYPDAFAPVAQFVNWIDSIIQ
Question: What does the source list for B4?
Answer: proteolysis of endogenous IL-36γ from keratinocyte extracts and supernatants, immunoblot (endogenous IL-36γ): IL-36γ incubated with elastase resulted in robust IL-36γ proteolysis both intracellularly as well as extracellularly; proteolysis of endogenous IL-36γ in psoriatic skin homogenates, immunoblot (endogenous IL-36γ): incubating these psoriatic homogenates with neutrophil elastase resulted in IL-36γ proteolysis

— patent US20170281716
